For 64 substances, Peptide exchange results are on record in US10472401B2, “Peptides and combination of peptides for use in immunotherapy against ovarian cancer and other cancers” (immatics biotechnologies GmbH, priority 2015, dated 2019).

The assay deals with HLA-A*02:01 (Homo sapiens, UniProt P04439, D140Y/D185E/D98H/E176V/E277Q/G131W/G231S/I119V/I121R/I166T/I218V/L300P/L318F/N151K/N90K/P208A/P217A/Q86G/Q94H/R138H/R169H/T345S). Briefly: MHC binding assay (UV-ligand exchange, ELISA of stabilized MHC complexes). Conditions: MHC class I binding score; binding to HLA-A*02:01 ranged by peptide exchange yield (UV-ligand exchange, ELISA). An excerpt: Candidate peptides for T cell based therapies according to the present invention were further tested for their MHC binding capacity (affinity). The individual peptide-MHC complexes were produced by UV-ligand exchange, where a UV-sensitive peptide is cleaved upon UV-irradiation, and exchanged with the peptide of interest as analyzed. Only peptide candidates that can effectively bind and stabilize the peptide-receptive MHC molecules prevent dissociation of the MHC complexes. To determine the yield of the exchange reaction, an ELISA was performed based on the detection of the light chain (β2m) of stabilized MHC complexes. The assay was performed as generally described in Rodenko et al. (Rodenko et al., 2006).
96 well MAXISorp plates (NUNC) were coated over night with 2 ug/ml streptavidin in PBS at room temperature, washed 4× and blocked for 1h at 37° C. in 2% BSA containing blocking buffer. […] Peptide-MHC monomers of the UV-exchange reaction were diluted 100 fold in blocking buffer. Samples were incubated for 1h at 37° C., washed four times, incubated with 2 ug/ml HRP conjugated anti-82m for 1h at 37° C., washed again and detected with TMB solution that is stopped with […]. Absorption was measured at 450 nm. Candidate peptides that show a high exchange yield (preferably higher than 50%, most preferred higher than 75%) are generally preferred for a generation and production of antibodies or fragments thereof, and/or T cell receptors or fragments thereof, as they show sufficient avidity to the MHC molecules and prevent dissociation of the MHC complexes.
(In general: ELISA stands for enzyme-linked immunosorbent assay.)
On to “503 (SLNHFTHSV; listed as Homo sapiens) [compound 503]”, for which the Peptide exchange result was “″+++″ (≥50% = +++)”.

As for “620 (KLLNKIYEA; listed as Homo sapiens) [compound 620]”, the Peptide exchange result is reported as “″++++″ (≥75% = ++++)”.

Consider “378 (ALGYFVPYV; listed as Homo sapiens) [compound 378]”, for which the Peptide exchange entry was “″+++″ (≥50% = +++)”.

Turning to “196 (YLYSVEIKL; listed as Homo sapiens) [compound 196]”, the Peptide exchange entry was “″++++″ (≥75% = ++++)”.

On to “457 (SLLPGNLVEKV; listed as Homo sapiens) [compound 457]”, for which the Peptide exchange entry is on record as “″+++″ (≥50% = +++)”.

Turning to “171 (LLLPLQILL; listed as Homo sapiens) [compound 171]”, the Peptide exchange entry was “″+++″ (≥50% = +++)”.

For “12 (SLWPDPMEV; listed as Homo sapiens) [compound 12]”, the Peptide exchange entry is on record as “″+++″ (≥50% = +++)”.

On to “602 (YLLEQIKLIEV; listed as Homo sapiens) [compound 602]”, for which the Peptide exchange entry is recorded as “″++++″ (≥75% = ++++)”.

Regarding “200 (LLFGSVQEV; listed as Homo sapiens) [compound 200]”, the Peptide exchange result is “″+++″ (≥50% = +++)”.

Consider “169 (NLPEYLPFV; listed as Homo sapiens) [compound 169]”, for which the Peptide exchange entry is on record as “″+++″ (≥50% = +++)”.

For the substance “412 (YLDDLNEGVYI; listed as Homo sapiens) [compound 412]”, the Peptide exchange entry is listed as “″++″ (≥20% = ++)”.

“601 (SAFPFPVTV; listed as Homo sapiens) [compound 601]”: the Peptide exchange result was “″+++″ (≥50% = +++)”.

With “53 (KMIETDILQKV; listed as Homo sapiens) [compound 53]”, the Peptide exchange result was “″++++″ (≥75% = ++++)”.

As to “571 (LLLTTIPQI; listed as Homo sapiens) [compound 571]”, the Peptide exchange result was “″+++″ (≥50% = +++)”.

Regarding “178 (ALTEIAFVV; listed as Homo sapiens) [compound 178]”, the Peptide exchange entry is “″++++″ (≥75% = ++++)”.

On to “183 (FGLDLVTEL; listed as Homo sapiens) [compound 183]”, for which the Peptide exchange entry is reported as “″+++″ (≥50% = +++)”.

On to “327 (GLAPFTEGISFV; listed as Homo sapiens) [compound 327]”, for which the Peptide exchange entry is on record as “″+++″ (≥50% = +++)”.

Turning to “304 (MTLGQIYYL; listed as Homo sapiens) [compound 304]”, the Peptide exchange result is “″+++″ (≥50% = +++)”.

On to “616 (VLIDEVESL; listed as Homo sapiens) [compound 616]”, for which the Peptide exchange result is “″+++″ (≥50% = +++)”.

Consider “193 (QLLDADGFLNV; listed as Homo sapiens) [compound 193]”, for which the Peptide exchange entry is “″+++″ (≥50% = +++)”.

Consider “31 (YLAPELFVNV; listed as Homo sapiens) [compound 31]”, for which the Peptide exchange entry is on record as “″++″ (≥20% = ++)”.

“170 (RLQETLSAA; listed as Homo sapiens) [compound 170]”: the Peptide exchange result was “″+++″ (≥50% = +++)”.

With “218 (SALEELVNV; listed as Homo sapiens) [compound 218]”, the Peptide exchange entry is on record as “″++″ (≥20% = ++)”.

Take “87 (ALPEAPAPLLPHIT; listed as Homo sapiens) [compound 87]”: the Peptide exchange result is given as “″++″ (≥20% = ++)”.

Regarding “494 (ALQPEPIKV; listed as Homo sapiens) [compound 494]”, the Peptide exchange result is recorded as “″++″ (≥20% = ++)”.

As for “128 (YLFDDPLSAV; listed as Homo sapiens) [compound 128]”, the Peptide exchange entry is recorded as “″++″ (≥20% = ++)”.

For the substance “54 (SLLEQGKEPWMV; listed as Homo sapiens) [compound 54]”, the Peptide exchange entry is on record as “″+++″ (≥50% = +++)”.

As for “504 (GLSDGNPSL; listed as Homo sapiens) [compound 504]”, the Peptide exchange entry is listed as “″++″ (≥20% = ++)”.

On to “197 (ALGPEGGRV; listed as Homo sapiens) [compound 197]”, for which the Peptide exchange result was “″++″ (≥20% = ++)”.

Turning to “405 (ALYDVFLEV; listed as Homo sapiens) [compound 405]”, the Peptide exchange entry was “″++″ (≥20% = ++)”.

For “300 (ALLGQTFSL; listed as Homo sapiens) [compound 300]”, the Peptide exchange entry was “″+++″ (≥50% = +++)”.

In the case of “485 (NVPDSFNEV; listed as Homo sapiens) [compound 485]”, the Peptide exchange result is listed as “″+++″ (≥50% = +++)”.

As for “132 (LLVEQPPLAGV; listed as Homo sapiens) [compound 132]”, the Peptide exchange entry is “″+++″ (≥50% = +++)”.

Take “598 (FLFPHSVLV; listed as Homo sapiens) [compound 598]”: the Peptide exchange result was “″+++″ (≥50% = +++)”.

Regarding “462 (KLAKQPETV; listed as Homo sapiens) [compound 462]”, the Peptide exchange result is “″+++″ (≥50% = +++)”.

“84 (VTFGEKLLGV; listed as Homo sapiens) [compound 84]”: the Peptide exchange result is listed as “″++″ (≥20% = ++)”.

For “130 (FLWNGEDSALL; listed as Homo sapiens) [compound 130]”, the Peptide exchange entry is recorded as “″+++″ (≥50% = +++)”.

As to “596 (ALLDQTKTLAESAL; listed as Homo sapiens) [compound 596]”, the Peptide exchange entry is given as “″+++″ (≥50% = +++)”.

Regarding “380 (TLIEDEIATI; listed as Homo sapiens) [compound 380]”, the Peptide exchange entry is given as “″++″ (≥20% = ++)”.

For “403 (KLYDRILRV; listed as Homo sapiens) [compound 403]”, the Peptide exchange result is given as “″++″ (≥20% = ++)”.

As to “100 (YLLSTNAQL; listed as Homo sapiens) [compound 100]”, the Peptide exchange entry is “″++++″ (≥75% = ++++)”.

“117 (ILPDGEDFLAV; listed as Homo sapiens) [compound 117]”: the Peptide exchange entry is “″+++″ (≥50% = +++)”.

On to “389 (LLADVTHLL; listed as Homo sapiens) [compound 389]”, for which the Peptide exchange entry is “″++″ (≥20% = ++)”.

As for “565 (ALQETPTSV; listed as Homo sapiens) [compound 565]”, the Peptide exchange result is on record as “″++″ (≥20% = ++)”.

Consider “97 (SLINGSFLV; listed as Homo sapiens) [compound 97]”, for which the Peptide exchange entry is given as “″+++″ (≥50% = +++)”.

In the case of “357 (SMHDLVLQV; listed as Homo sapiens) [compound 357]”, the Peptide exchange result is “″+++″ (≥50% = +++)”.

For the substance “133 (KVLSNIHTV; listed as Homo sapiens) [compound 133]”, the Peptide exchange entry was “″++″ (≥20% = ++)”.

With “552 (GLLDLPFRVGV; listed as Homo sapiens) [compound 552]”, the Peptide exchange entry is listed as “″++++″ (≥75% = ++++)”.

Turning to “302 (ALLQEGEVYSA; listed as Homo sapiens) [compound 302]”, the Peptide exchange result is reported as “″+++″ (≥50% = +++)”.

For the substance “381 (FIDEAYVEV; listed as Homo sapiens) [compound 381]”, the Peptide exchange result is recorded as “″++″ (≥20% = ++)”.

Regarding “225 (SLLKVLPAL; listed as Homo sapiens) [compound 225]”, the Peptide exchange entry is on record as “″+++″ (≥50% = +++)”.

Turning to “63 (YLLPSGGSVTL; listed as Homo sapiens) [compound 63]”, the Peptide exchange result was “″++″ (≥20% = ++)”.

As for “525 (VLLEAGEGLVTI; listed as Homo sapiens) [compound 525]”, the Peptide exchange result is given as “″+++″ (≥50% = +++)”.

Take “186 (TLFFQQNAL; listed as Homo sapiens) [compound 186]”: the Peptide exchange entry is listed as “″++″ (≥20% = ++)”.

“510 (KLYSVVSQL; listed as Homo sapiens) [compound 510]”: the Peptide exchange result was “″++″ (≥20% = ++)”.

In the case of “275 (YLVYILNEL; listed as Homo sapiens) [compound 275]”, the Peptide exchange entry is “″++″ (≥20% = ++)”.

As for “430 (HLYSSIEHLTT; listed as Homo sapiens) [compound 430]”, the Peptide exchange entry was “″+++″ (≥50% = +++)”.

As to “341 (SQIALNEKLVNL; listed as Homo sapiens) [compound 341]”, the Peptide exchange entry is given as “″+++″ (≥50% = +++)”.

As to “537 (TLAPGEVLRSV; listed as Homo sapiens) [compound 537]”, the Peptide exchange entry is listed as “″+++″ (≥50% = +++)”.

As to “618 (VLFDSESIGIYV; listed as Homo sapiens) [compound 618]”, the Peptide exchange entry was “″+++″ (≥50% = +++)”.

For “428 (KLGHTDILVGV; listed as Homo sapiens) [compound 428]”, the Peptide exchange entry is “″++″ (≥20% = ++)”.

Regarding “348 (ILLDVKTRL; listed as Homo sapiens) [compound 348]”, the Peptide exchange result is listed as “″++++″ (≥75% = ++++)”.

“182 (MLLEAPGIFL; listed as Homo sapiens) [compound 182]”: the Peptide exchange result is listed as “″+++″ (≥50% = +++)”.

For “322 (TLMTSLPAL; listed as Homo sapiens) [compound 322]”, the Peptide exchange result is given as “″+++″ (≥50% = +++)”.
